In patent publication US20190085084A1 (published 2019):
Numbering of substitutions follows the chain as printed. Each block holds one binder with its values, some of them ahead of it.

Assays:
[1] = target: T1, mouse Sortilin expressed on HEK293T cells (mouse, UniProt Q6PHU5 74-825); experiment: flow cytometry titration on HEK293T cells expressing mouse Sortilin, 4 C, apparent KD
T1 construct: also called msSort; mSort

[2] = target: T2, human Sortilin expressed on HEK293T cells (human, UniProt Q99523 78-830); experiment: flow cytometry titration on HEK293T cells expressing human Sortilin, 4 C, apparent KD
T2 construct: also called hSort; HEK293T+ hSort

[3] = target: T3, mouse Sortilin (R&D Systems), recombinant (mouse, UniProt Q6PHU5 74-754, limits assumed); experiment: ELISA, biotinylated Progranulin on plate-immobilized Sortilin
T3 construct: Bought protein; also called mouse SORT1
Method: (§1) Briefly, human or mouse Sortilin (R&D Systems) was immobilized overnight on an ELISA plate (2 μg/ml in PBS). The plates were washed in wash buffer (PBS+0.05% TWEEN20) and blocked for one hour at 37° C. with binding buffer (PBS+1% BSA). […] Plates were washed thrice in wash buffer and incubated with Streptavidin-HRP (1:200 in binding buffer, R&D Systems) for 20 min. Plates were washed thrice again and incubated with TMB substrate solution until color developed. The reaction was stopped by adding 50 ul of 2N sulfuric acid and color was quantified using a Biotek Synergy H1 plate reader. Data was analyzed and fitted in Prism.

[4] = target: T4, Human His-tagged Sortilin (R&D Systems) (human, UniProt Q99523 78-755); experiment: as above
T4 construct: Bought protein; also called His-captured Sortilin (SORT1); Histidine-tagged human Sortilin
Method: as §1

[5] = target: T4, Human His-tagged Sortilin (R&D Systems); experiment: Biacore SPR, Sortilin captured by anti-His antibody on CM5 chip, Progranulin flowed over
From the text: Briefly, Sortilin was captured on a CM5 sensor chip that was immobilized with an anti-His antibody (kit from GE). Progranulin was flowed over in HBS binding buffer at various concentrations. Fitting of sensorgrams for affinity estimations was done using BIAevaluation version 3.1.

B1: anti-Sortilin antibody S-15-6-12 (antibody, V domains shown)
VH: QVQLVQSGAEVKKPGASVKVSCKASGYTFTSRYMSWVRQAPGQGLEWMGIINPVGGSTSYAQKFQGRVTMTRDTSTSTVYMELSSLRSEDTAVYYCARDPSGIALAGPGSPYYRGMDVWGQGTTVTVSS
VL: EIVMTQSPATLSVSPGERATLSCRASQSVSSNLAWYQQKPGQAPRLLIYGASTRATGIPARFSGSGSGTEFTLTISSLQSEDFAVYYCQQARLGPWTFGGGTKVEIK
Kd [1]: 6.62 nM
Kd [2]: 3.84 nM

B2: anti-Sortilin antibody S-15-10-12 (antibody, V domains shown)
VH: B1 VH with S31K, R32Y, V54I, L105A, G107F, G109A, S110G, P111R, R114Y
VL: B1 VL
Kd [1]: 8.89 nM
Kd [2]: 4.3 nM

Continued, values first:

Kd [3]: 40 nM
B3: recombinant mouse Progranulin (Adipogen) (ligand, UniProt P28798 18-589, looked up)
chain: TQCPDGQFCPVACCLDQGGANYSCCNPLLDTWPRITSHHLDGSCQTHGHCPAGYSCLLTVSGTSSCCPFSKGVSCGDGYHCCPQGFHCSADGKSCFQMSDNPLGAVQCPGSQFECPDSATCCIMVDGSWGCCPMPQASCCEDRVHCCPHGASCDLVHTRCVSPTGTHTLLKKFPAQKTNRAVSLPFSVVCPDAKTQCPDDSTCCELPTGKYGCCPMPNAICCSDHLHCCPQDTVCDLIQSKCLSKNYTTDLLTKLPGYPVKEVKCDMEVSCPEGYTCCRLNTGAWGCCPFAKAVCCEDHIHCCPAGFQCHTEKGTCEMGILQVPWMKKVIAPLRLPDPQILKSDTPCDDFTRCPTNNTCCKLNSGDWGCCPIPEAVCCSDNQHCCPQGFTCLAQGYCQKGDTMVAGLEKIPARQTTPLQIGDIGCDQHTSCPVGQTCCPSLKGSWACCQLPHAVCCEDRQHCCPAGYTCNVKARTCEKDVDFIQPPVLLTLGPKVGNVECGEGHFCHDNQTCCKDSAGVWACCPYLKGVCCRDGRHCCPGGFHCSARGTKCLRKKIPRWDMFLRDPVPRPLL
notes: Used biotinylated; also called mPGRN; mouse PGRN

Kd [2]: 2.05 nM
B4: anti-Sortilin antibody S-22-7 (antibody, V domains shown)
VH: QVQLVQSGAEVKKPGSSVKVSCKASGGTFSSYAISWVRQAPGQGLEWMGGIIPGFGRANYAQKFQGRVTITADESTSTAYMELSSLRSEDTAVYYCARQGRKTGYYYYYGMDVWGQGTTVTVSS
VL: DIQMTQSPSTLSASVGDRVTITCRASQSISSWLAWYQQKPGKAPKLLIYKASSLESGVPSRFSGSGSGTEFTLTISSLQPDDFATYYCQQADGHITFGGGTKVEIK

Kd [4]: 14 nM
Kd [5]: 14.3 nM
B5: recombinant human Progranulin (Adipogen) (ligand, UniProt P28799 18-593, looked up)
chain: TRCPDGQFCPVACCLDPGGASYSCCRPLLDKWPTTLSRHLGGPCQVDAHCSAGHSCIFTVSGTSSCCPFPEAVACGDGHHCCPRGFHCSADGRSCFQRSGNNSVGAIQCPDSQFECPDFSTCCVMVDGSWGCCPMPQASCCEDRVHCCPHGAFCDLVHTRCITPTGTHPLAKKLPAQRTNRAVALSSSVMCPDARSRCPDGSTCCELPSGKYGCCPMPNATCCSDHLHCCPQDTVCDLIQSKCLSKENATTDLLTKLPAHTVGDVKCDMEVSCPDGYTCCRLQSGAWGCCPFTQAVCCEDHIHCCPAGFTCDTQKGTCEQGPHQVPWMEKAPAHLSLPDPQALKRDVPCDNVSSCPSSDTCCQLTSGEWGCCPIPEAVCCSDHQHCCPQGYTCVAEGQCQRGSEIVAGLEKMPARRASLSHPRDIGCDQHTSCPVGQTCCPSLGGSWACCQLPHAVCCEDRQHCCPAGYTCNVKARSCEKEVVSAQPATFLARSPHVGVKDVECGEGHFCHDNQTCCRDNRQGWACCPYRQGVCCADRRHCCPAGFRCAARGTKCLRREAPRWDAPLRDPALRQLL
notes: Used unlabelled, biotinylated (NHS-PEG4 or Sulfo-NHS) or labelled with DyLight 650, as the assay says; also called PGRN; hPGRN
